# Source: paper PMC8165646
# Biological target: HA-tagged mutant (Leu15) AP2σ2 subunit (human) (human) (UniProt P53680)
# Test: co-IP; lysates of HEK293 cells stably expressing FLAG-CaSR with HA-tagged WT or Leu15 AP2σ2; anti-HA-sepharose beads 2 h; blots with anti-AP2α, anti-AP2β2 and anti-AP2μ2 for the endogenous subunits; lysis buffer 0.5% NP40, 135 mM NaCl, 20 mM Tris pH 7.5, 1 mM EDTA
substance,measurement,value
"AP2α subunit, endogenous in HEK293 (from UniProt O95782 1-977) (natural protein)","reduction of the subunit in the HA-AP2σ2 immunoprecipitate, Leu15 cells against WT cells",> 50%
